Source: the supplement of paper PMC9170038

Tested on: MS2 coat protein
Assay: apparent KD of MS2 coat protein; designed switch direction (-1 OFF switch, 1 ON switch): -1; higher = weaker reporter binding
Method in brief: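 Three titration conditions were used: no input, 200 uM small-molecule ligand, and an oligonucleotide input. In each, SNAP-549-labelled MS2 coat protein was raised from 0.7 or 1.5 nM, doubling, to 3 µM over designed RNA switches transcribed on Illumina chips by stalled E. coli RNA polymerase. Curve fits of normalised cluster fluorescence gave values whose per-design median over clusters is the apparent KD.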

[1] = Eterna round: R95, input ligand: FMN 200 uM
[2] = Eterna round: R95, input ligand: microRNA oligo, concentration not stated
[3] = Eterna round: R95, input ligand: none
[4] = input ligand: microRNA oligo, concentration not stated

Sequence: AUUAUAAUAUAGGAUAUCGAAAUAAUUAUUUAACGAGAAGGAUGAACAUGAGGAUCACCCAUGUGGUAUCAUGG [Mat - Exclusion 6 - JL Mod - D33] (puzzle: Exclusion 6)
- apparent KD of MS2 coat protein [1]: 160 nM
- apparent KD of MS2 coat protein [2]: 360 nM
- apparent KD of MS2 coat protein [3]: 224 nM

Sequence: AUUAUAUAGAAAGGAUAUAGAAUAUUAUUUUAACAUGAGGAUCACCCAUGUAACCUUAUGUGUAGCUAGAAGGUUCAUUUAUUA [Title] (Eterna round: R96, puzzle: Exclusion NG 2)
- apparent KD of MS2 coat protein [4]: 52.5 nM

Sequence: AUUAUAUAGAAAGGAUAUUGAUUAUUAUUUUAACAUGAGGAUCACCCAUGUAGCCUUAUGUAUAACAAGAAGGUUCAUUUAUUA [Title] (Eterna round: R96, puzzle: Exclusion NG 2)
- apparent KD of MS2 coat protein [4]: 58.4 nM

Sequence: AUUGAUGUUGAGGAUAUGCAUAUAUUUAUAAAAGCAGAAGGCGAUACAUGAGGAUCACCCAUGUUCAUGGAAGU [JR_E6_Sub094] (puzzle: Exclusion 6)
- apparent KD of MS2 coat protein [1]: 46.7 nM
- apparent KD of MS2 coat protein [2]: 35 nM
- apparent KD of MS2 coat protein [3]: 51.3 nM

Sequence: AUUGGGUGAGGAUAUCCAUCUGGAUCAGACUAGAUCCUGAUGGAGAAGGCACAUGAGGAUCACCCAUGUGAGUU [Eli 4x 4.34] (Eterna round: R97, puzzle: Exclusion 4)
- apparent KD of MS2 coat protein (input ligand: FMN 200 uM): 108 nM
- apparent KD of MS2 coat protein (input ligand: none): 95.6 nM

Sequence: AUUGUUGUUGUGAGGAUAUCGUUGAUUUUUUGAAACGAGAAGGCACAUGAGGAUCACCCAUGUUAGUUGUUGGU [JR_BMOE4_Sub057] (puzzle: Brourd's mod of Exclusion 4)
- apparent KD of MS2 coat protein [2]: 77.3 nM

Sequence: AUUUAAUUUAAUAAGAUCACAUGAGGAUCACCCAUGUAUAUAUAGGAUAUCAGCUCGUGUAGAGCUGAGAAGGAUAUAUACUAU [ExNG3/7-B3] (Eterna round: R96, puzzle: Exclusion NG 3)
- apparent KD of MS2 coat protein [4]: 266 nM

Sequence: AUUUAAUUUAAUAAGAUCACAUGAGGAUCACCCAUGUUAUAAUAGGAUAUCAGCUCGUGUAGAGCUGAGAAGGAUUAUAACAUG [ExNG3/9-A3] (Eterna round: R96, puzzle: Exclusion NG 3)
- apparent KD of MS2 coat protein [4]: 22.2 nM

Sequence: AUUUACAAGCUAAGAUCCUACAUGAGGAUCACCCAUGUGGUCCGGUGACGUGAGUCACCGGACUUAGCUCGUCUUGA [salish99_S_TOV1_R5_082] (Eterna round: R97, puzzle: Sensor, turn-off variant 1)
- apparent KD of MS2 coat protein (input ligand: FMN 200 uM): 32.9 nM
- apparent KD of MS2 coat protein (input ligand: none): 36.8 nM

Sequence: AUUUACAAGCUAAGAUCCUACAUGAGGAUCACCCAUGUGGUCCGGUGACGUGAGUCACCGGACUUAGCUCGUCUUGC [salish99_S_TOV1_R5_084] (Eterna round: R97, puzzle: Sensor, turn-off variant 1)
- apparent KD of MS2 coat protein (input ligand: FMN 200 uM): 37.2 nM
- apparent KD of MS2 coat protein (input ligand: none): 38.1 nM

Sequence: CAAAAGCUAGGAUAUACACAAAACGCCUGCAUGCAAACAUCACAUGAGGAUCACCCAUGUAGAAGGAGCGGAAA [EX2 A.21] (Eterna round: R97, puzzle: Exclusion 2)
- apparent KD of MS2 coat protein (input ligand: FMN 200 uM): 22.1 nM
- apparent KD of MS2 coat protein (input ligand: none): 19.1 nM

Sequence: CAAAAGGUAGGAUAUACGAAAAAAAAGGGUAGAAAAAAAACACAUGAGGAUCACCCAUGUAGAAGGACCAAAAU [salish99_ex2_r3_054] (puzzle: Exclusion 2)
- apparent KD of MS2 coat protein [1]: 90.9 nM
- apparent KD of MS2 coat protein [2]: 24.3 nM
- apparent KD of MS2 coat protein [3]: 22.5 nM

Sequence: CAAAGACCGGCAGGAUAUUGACCCAGAACAUGAGGAUCACCCAUGUCAACAAGGUUGGACCAGGGCGAGAAGGGCCACGCCAAA [Eternabot solution 22] (Eterna round: R96, puzzle: Exclusion NG 2)
- apparent KD of MS2 coat protein (input ligand: FMN 200 uM): 12.3 nM
- apparent KD of MS2 coat protein [4]: 12.5 nM
- apparent KD of MS2 coat protein (input ligand: none): 22.1 nM

Sequence: CAAAUCAGGCGAGGAUAUCCGAAAGGAAGUGUAGGAGAAGGCGCGAAAUAUAAAACAUGAGGAUCACCCAUGUCGUCCCGUGUG [PowerStrip EXNG 1.21] (Eterna round: R96, puzzle: Exclusion NG 1)
- apparent KD of MS2 coat protein (input ligand: FMN 200 uM): 169 nM
- apparent KD of MS2 coat protein [4]: 117 nM
- apparent KD of MS2 coat protein (input ligand: none): 130 nM

Sequence: CACCGUUAGUGAGGAUAUCUUACAUGAGGAUCACCCAUGUAAUAAAUGAGAAUUUCGGAUGUAUUAGAGAAGGCACAAAUCGGC [Ostricism 57 - Jieux - Exclusion NG 2] (Eterna round: R96, puzzle: Exclusion NG 2)
- apparent KD of MS2 coat protein [4]: 17.7 nM

Sequence: CACCUGAAGACAGGAUAUCAUACAUGAGGAUCACCCAUGUAAUAAAUGAGAAUUUCGAAUGUAAUUGAGAAGGGUCAAUAAGGC [Ostricism 96 - Jieux - Exclusion NG 2] (Eterna round: R96, puzzle: Exclusion NG 2)
- apparent KD of MS2 coat protein (input ligand: FMN 200 uM): 58.7 nM
- apparent KD of MS2 coat protein [4]: 31.3 nM
- apparent KD of MS2 coat protein (input ligand: none): 29.2 nM

Sequence: CAGAGCAGACGGAGAUCCAACAUGAGGAUCACCCAUGUCUCAAAAGCUUUUUGCUCGUCUUAUCCUCCUCUGUUCAC [Esquitian 3] (Eterna round: R97, puzzle: Sensor, turn-off variant 1)
- apparent KD of MS2 coat protein (input ligand: FMN 200 uM): 26 nM
- apparent KD of MS2 coat protein (input ligand: none): 30.4 nM

Sequence: CAGAGCUUUUACUCGUCUUACAUGAGGAUCACCCAUGUCUCCUAGUGGGUAAAAUAUUAAGAAGAAAUUCUUAAUAA [jun14#1] (Eterna round: R97, puzzle: Sensor, turn-off variant 1)
- apparent KD of MS2 coat protein (input ligand: FMN 200 uM): 125 nM
- apparent KD of MS2 coat protein (input ligand: none): 145 nM

Sequence: CAGCCAAGUGUGAGGAUAUGGCGAUUGCAUUGACGUCAGAAGGCACAUGAGGAUCACCCAUGUGAGGUGGAUGA [Eternabot (L2) Solution 25] (Eterna round: R97, puzzle: Brourd's mod of Exclusion 4)
- apparent KD of MS2 coat protein (input ligand: FMN 200 uM): 45.8 nM
- apparent KD of MS2 coat protein (input ligand: none): 755 nM

Sequence: CAGCCUCAGGUUAGGAUAUACGCGUGGCCGAAGGAGUAGAAGGGACAUGAGGAUCACCCAUGUGGGUUCAAAUG [Onsoisgeso] (puzzle: Brourd's mod of Exclusion 4)
- apparent KD of MS2 coat protein [1]: 292 nM
- apparent KD of MS2 coat protein [2]: 151 nM
- apparent KD of MS2 coat protein [3]: 270 nM

Sequence: CAGCGACAUGAGGAUCACCCAUGUGGCUUCGUUCCCGCUGGCAAGGAUAUCCAGUCUUCGUGAGAGGAGAAGGUGCAAAAUAAG [Atveso] (Eterna round: R96, puzzle: Exclusion NG 3)
- apparent KD of MS2 coat protein (input ligand: FMN 200 uM): 65.2 nM
- apparent KD of MS2 coat protein [4]: 31.7 nM
- apparent KD of MS2 coat protein (input ligand: none): 49.3 nM

Sequence: CAGGAGUCAGGAUAUCGUUACCACGGAGUUGCUGUGCAUAACGAGAAGGGACAUGAGGAUCACCCAUGUGCCUC [Eternabot (L1) Solution 98] (Eterna round: R97, puzzle: Exclusion 4)
- apparent KD of MS2 coat protein (input ligand: FMN 200 uM): 57.6 nM
- apparent KD of MS2 coat protein (input ligand: none): 22.3 nM

Sequence: CAGGGCAUGCGAGGAUAUAGCAACAUGAGGAUCACCCAUGUAUAAGGGUGUCCAAGGCAUGCGCGCUAGAAGGCGCUGGUUCUC [Gemadi] (Eterna round: R96, puzzle: Exclusion NG 2)
- apparent KD of MS2 coat protein (input ligand: FMN 200 uM): 343 nM
- apparent KD of MS2 coat protein [4]: 64.6 nM
- apparent KD of MS2 coat protein (input ligand: none): 116 nM

Sequence: CAGUACUGAGGAUAUACAUGAGGAUCACCCAUGUGCUCCAGCUAGGAAACUAGCAAAAGUAGAAGGCAGUACUG [828 mod 2 m8] (Eterna round: R97, puzzle: Exclusion 3)
- apparent KD of MS2 coat protein (input ligand: FMN 200 uM): 3960 nM
- apparent KD of MS2 coat protein (input ligand: none): 101 nM

Sequence: CAGUACUGAGGAUAUACAUGAGGAUCACCCAUGUGGUCCAGCUAGGAAACUAGCACGUGUAGAAGGCAGUACUG [Ex3: 840] (Eterna round: R96, puzzle: Exclusion 3)
- apparent KD of MS2 coat protein (input ligand: FMN 200 uM): 58.3 nM
- apparent KD of MS2 coat protein [4]: 55.3 nM
- apparent KD of MS2 coat protein (input ligand: none): 45.7 nM

Sequence: CAGUACUGAGGAUAUACAUGAGGAUCACCCAUGUGUAGAUGAAAAUUAAUUUUAUUAUGUAGAAGGCGGUGCUG [JR_Ex3_Sub045] (Eterna round: R97, puzzle: Exclusion 3)
- apparent KD of MS2 coat protein (input ligand: FMN 200 uM): 85.1 nM
- apparent KD of MS2 coat protein (input ligand: none): 23.3 nM

Sequence: CAGUACUGAGGAUAUACAUGAGGAUCACCCAUGUGUUCCAGCUAGGAAACUAGCAAAAGUAGAAGGCAGUUCUG [salish99_ex3_r3_099x] (puzzle: Exclusion 3)
- apparent KD of MS2 coat protein [2]: 19.3 nM

Sequence: CAGUACUGAGGAUAUACAUGAGGAUCACCCAUGUGUUCCAGCUAGGAUACUAGCAAAAGUAGAAGGCAGUACUG [salish99_ex3_r3_095x] (Eterna round: R96, puzzle: Exclusion 3)
- apparent KD of MS2 coat protein [4]: 20.9 nM

Sequence: CAGUACUGAGGAUAUACAUGAGGAUCACCCAUGUGUUCCAGCUAGGAUACUAGCAAAAGUAGAAGGCAGUACUG [salish99_ex3_r3_095x] (puzzle: Exclusion 3)
- apparent KD of MS2 coat protein [1]: 484 nM
- apparent KD of MS2 coat protein [2]: 30.4 nM
- apparent KD of MS2 coat protein [3]: 24 nM

Sequence: CAGUACUGAGGAUAUACAUGAGGAUCACCCAUGUGUUCCAGCUUGGAAACUAGCAAAAGUAGAAGGCAGUACUG [salish99_ex3_r3_097x] (puzzle: Exclusion 3)
- apparent KD of MS2 coat protein [2]: 16.6 nM

Sequence: CAGUAUCUAGGAUAUACGCUGGGUACUAUUCUCAAGUCAGGACAUGAGGAUCACCCAUGUAGAAGGAGAAGCAU [EX2 A.28] (Eterna round: R97, puzzle: Exclusion 2)
- apparent KD of MS2 coat protein (input ligand: FMN 200 uM): 32.5 nM
- apparent KD of MS2 coat protein (input ligand: none): 34 nM

Sequence: CAGUGCUGACGGAGAUCCAACAUGAGGAUCACCCAUGUCUCAAAAGCUUUUUGCUCGUCUUAUCCUCCUCAGUACUC [Mat - Sensor, turn-off var - Eli Mod - D57] (Eterna round: R97, puzzle: Sensor, turn-off variant 1)
- apparent KD of MS2 coat protein (input ligand: FMN 200 uM): 14.6 nM
- apparent KD of MS2 coat protein (input ligand: none): 19.2 nM

Sequence: CAUGUCCAACGAGGAUAUGGGAAAGGAAGUGUACCAGAAGGCGUACGGACAUGAGGAUCACCCAUGUCGCGCGGCGCGAUGUGG [PowerStrip EXNG 1.1] (Eterna round: R96, puzzle: Exclusion NG 1)
- apparent KD of MS2 coat protein (input ligand: FMN 200 uM): 47.6 nM
- apparent KD of MS2 coat protein [4]: 28.3 nM
- apparent KD of MS2 coat protein (input ligand: none): 41.5 nM

Sequence: CAUUAUUAUCGAGGAUAUCCUAUUGAAAUUCUAGGAGAAGGCGGACUCAACAUGAGGAUCACCCAUGUGGGACGGAUGCUAGGG [Ex NG1 #29] (Eterna round: R96, puzzle: Exclusion NG 1)
- apparent KD of MS2 coat protein (input ligand: FMN 200 uM): 15.9 nM
- apparent KD of MS2 coat protein [4]: 19.6 nM
- apparent KD of MS2 coat protein (input ligand: none): 17.8 nM
